Reference: patent publication US20070015228A1 (Genentech, published 2007)

B1: anti-idiotypic antibody 8A3 (antibody, V domains shown)
VH: QVQLQQSGAELAKPGASVKMSCKASGYNFTTYWMHWVKQRPGQGLEWIGYINPSTDYTEYNQKFKYKATLTADKSSSTAYIQLSSLTSEDSAVYYCARWWDYDWYFDVWGAGTPLTVSS
VL: DIVMTQSQEFMSTSVGDRVSVTCKASQTVDTNVAWYQQKLGQSPKPLIYSASYRCSGVPDRFTGSGSRTDFTLTITNVQSEDLAEYFCQQYHSFPWTFGGGTKVEIKR
notes: Murine monoclonal antibody raised against 2H7.v16; It was biotinylated when used as detection antibody and unlabeled when coated; also called MAb 8A3; 8A3-bio
B2: humanized 2H7 variant v511 (antibody, human IgG1, kappa, V domains shown)
VH: EVQLVESGGGLVQPGGSLRLSCAASGYTFTSYNMHWVRQAPGKGLEWVGAIYPGNGATSYNQKFKGRFTISVDKSKNTLYLQMNSLRAEDTAVYYCARVVYYSYRYWYFDVWGQGTLVTVSS
VL: DIQMTQSPSSLSASVGDRVTITCRASSSVSYLHWYQQKPGKAPKPLIYAPSNLASGVPSRFSGSGSGTDFTLTISSLQPEDFATYYCQQWAFNPPTFGQGTKVEIKR
notes: also called 2H7.v511
B3: humanized anti-CD20 antibody 2H7.v16 (antibody, human IgG1, kappa)
heavy: not shown
light: DIQMTQSPSSLSASVGDRVTITCRASSSVSYMHWYQQKPGKAPKPLIYAPSNLASGVPSRFSGSGSGTDFTLTISSLQPEDFATYYCQQWSFNPPTFGQGTKVEIKRTVAAPSVFIFPPSDEQLKSGTASVVCLLNNFYPREAKVQWKVDNALQSGNSQESVTEQDSKDSTYSLSSTLTLSKADYEKHKVYACEVTHQGLSSPVTKSFNRGEC
notes: Human IgG1, expressed in 293 cells; also called humanized anti-CD20 IgG; humanized 2H7

Key:
[1] = biological target: B2; assay: sandwich ELISA, 8C5 coat, biotinylated 8A3 detection, mouse serum
[2] = biological target: B3; assay: ELISA, 8A3 coated on plate, anti-human IgG Fc-HRP detection
[3] = biological target: T1, humanized anti-CD20 antibody 2H7.v31; assay: as above
T1 construct: The L chain is the same as for 2H7.v16

[4] = biological target: B1; assay: sandwich ELISA in mouse serum, 8C5 coat + 2H7 + 8A3-bio; the signal needs binding to both 8C5 and 8A3
[5] = biological target: B1; assay: ELISA, plate coated with 8A3, serially diluted antibody, detection with goat anti-human IgG Fc-HRP

Binder: B1
- binding result [1]: binds
- binding result [2]: binds
- binding result [3]: binds

Binder: B2
- binding result [4]: binds

Binder: B3
- binding result [5]: binds
